According to the supplement of paper PMC9732359:
± gives the uncertainty stated by the source.

Assay: protein stability index of a GFP-peptide fusion (yeast GPS) (PSI 1-4); higher = more stable; sorted into four equal gates, so the index is relative within each strain
Summary of the method: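 The protein stability index of a peptide was calculated by multiplying its read frequency in each gate by that gate's number and adding the products. The peptides were tiled 17-residue stretches of yeast proteins, fused downstream of GFP on a Cherry-expressing plasmid and carried in yeast as a pooled library. Mid-log cultures in leucine-free medium were sorted into four equal gates by GFP/Cherry ratio, and each gate's plasmids were PCR-amplified and Illumina-sequenced.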

TYGFSILDIVINNPVNL [FAS1]
protein stability index (doa10∆): 2.07 ± 0.087 | protein stability index (pdr5∆): 2.37 ± 0.075 | protein stability index (san1∆): 2.53 ± 0.092 | protein stability index (ubr1∆): 3.02 ± 0.074

RDLKPSNLEKLLFINSS [YML103C/NUP188]
protein stability index (doa10∆): 1.93 ± 0.11 | protein stability index (pdr5∆): 1.91 ± 0.093 | protein stability index (san1∆): 1.66 ± 0.13 | protein stability index (ubr1∆): 1.69 ± 0.1

KVKILEQIDENWSKEDL [SWI3]
protein stability index (doa10∆): 3.12 ± 0.079 | protein stability index (pdr5∆): 2.92 ± 0.091 | protein stability index (san1∆): 2.88 ± 0.097 | protein stability index (ubr1∆): 2.89 ± 0.091

VAASIIPFPDHNQSPRN [RPB2]
protein stability index (doa10∆): 2.37 ± 0.09 | protein stability index (pdr5∆): 2.21 ± 0.076 | protein stability index (san1∆): 2.33 ± 0.12 | protein stability index (ubr1∆): 2.63 ± 0.078

DDDDYGDEEDPNEEAAF [RPC31]
protein stability index (pdr5∆): 3.38 ± 0.28

STKKKILGIHTSKMNLS [RPT2]
protein stability index (doa10∆): 3.47 ± 0.13 | protein stability index (pdr5∆): 3.21 ± 0.096 | protein stability index (san1∆): 3.42 ± 0.071 | protein stability index (ubr1∆): 3.05 ± 0.073

EDFMDIPKPRTAGKTSV [SNF2]
protein stability index (doa10∆): 2.67 ± 0.14 | protein stability index (pdr5∆): 3.24 ± 0.085 | protein stability index (san1∆): 3.2 ± 0.18 | protein stability index (ubr1∆): 3.08 ± 0.06

LLLDNGFNMKKITTSTE [SRP68]
protein stability index (doa10∆): 2.19 ± 0.18 | protein stability index (pdr5∆): 2.22 ± 0.091 | protein stability index (san1∆): 3.05 ± 0.17 | protein stability index (ubr1∆): 2.88 ± 0.1

TYIKSEITQQEKGLNEL [SMC4]
protein stability index (doa10∆): 1.88 ± 0.066 | protein stability index (pdr5∆): 1.7 ± 0.059 | protein stability index (san1∆): 2.75 ± 0.092 | protein stability index (ubr1∆): 1.55 ± 0.051

HADKDTFSSSISTYIST [POP8]
protein stability index (doa10∆): 2.61 ± 0.045 | protein stability index (pdr5∆): 2.58 ± 0.037 | protein stability index (san1∆): 2.41 ± 0.048 | protein stability index (ubr1∆): 2.69 ± 0.046

HLKILASSNFPFLNETK [RPC82]
protein stability index (doa10∆): 2.52 ± 0.055 | protein stability index (pdr5∆): 2.61 ± 0.064 | protein stability index (san1∆): 2.51 ± 0.06 | protein stability index (ubr1∆): 2.62 ± 0.045

QVLVCTATLAWGVNLPA [BRR2]
protein stability index (doa10∆): 1.53 ± 0.11 | protein stability index (pdr5∆): 1.91 ± 0.088 | protein stability index (san1∆): 2.1 ± 0.089 | protein stability index (ubr1∆): 2.12 ± 0.059

RGFSKDLKSKADKLADM [RRP6]
protein stability index (doa10∆): 3.34 ± 0.28

GEGSTVNASVDVDQHGN [SWI3]
protein stability index (pdr5∆): 3.47 ± 0.17 | protein stability index (san1∆): 2.87 ± 0.29 | protein stability index (ubr1∆): 3.35 ± 0.19

DRVIFRVPIRSEYKVAF [PRP8]
protein stability index (doa10∆): 2.93 ± 0.069 | protein stability index (pdr5∆): 2.71 ± 0.061 | protein stability index (san1∆): 2.55 ± 0.077 | protein stability index (ubr1∆): 2.42 ± 0.034

GTPLFTFGKKADVTSNI [YOR098C/NUP1]
protein stability index (doa10∆): 1.82 ± 0.05 | protein stability index (pdr5∆): 1.92 ± 0.046 | protein stability index (san1∆): 1.51 ± 0.11 | protein stability index (ubr1∆): 2.18 ± 0.036

TPAMIPYPGSPMHSIMP [DSN1]
protein stability index (doa10∆): 2.8 ± 0.037 | protein stability index (pdr5∆): 2.67 ± 0.034 | protein stability index (san1∆): 2.88 ± 0.036 | protein stability index (ubr1∆): 2.846 ± 0.025

LTCLPVPPPPVRPSISF [RPO21]
protein stability index (doa10∆): 2.28 ± 0.03 | protein stability index (pdr5∆): 2.44 ± 0.031 | protein stability index (san1∆): 2.36 ± 0.033 | protein stability index (ubr1∆): 2.33 ± 0.026

YDPKDALKNACNSIINK [RPB11]
protein stability index (doa10∆): 3.32 ± 0.24 | protein stability index (pdr5∆): 3.23 ± 0.14 | protein stability index (san1∆): 3.2 ± 0.084 | protein stability index (ubr1∆): 3.37 ± 0.15

SKTHKTVSRAYGGSRCA [RPL34A]
protein stability index (doa10∆): 2.68 ± 0.071 | protein stability index (pdr5∆): 2.91 ± 0.054 | protein stability index (san1∆): 2.82 ± 0.064 | protein stability index (ubr1∆): 2.85 ± 0.048

EQKLVDLLKFENISLAE [BRR2]
protein stability index (doa10∆): 2.65 ± 0.065 | protein stability index (pdr5∆): 2.93 ± 0.066 | protein stability index (san1∆): 2.71 ± 0.049 | protein stability index (ubr1∆): 2.58 ± 0.055

IQNKKIQEQRVKDKQSK [RPN8]
protein stability index (doa10∆): 1.97 ± 0.11 | protein stability index (pdr5∆): 2.78 ± 0.13 | protein stability index (ubr1∆): 2.92 ± 0.13

INIKYLRLDGHTKSDER [SNF2]
protein stability index (doa10∆): 3.1 ± 0.083 | protein stability index (pdr5∆): 2.11 ± 0.063 | protein stability index (san1∆): 2.29 ± 0.098 | protein stability index (ubr1∆): 2.79 ± 0.063

MMENYQNISPVYSVDPL [PRP8]
protein stability index (doa10∆): 2.08 ± 0.049 | protein stability index (pdr5∆): 1.88 ± 0.058 | protein stability index (san1∆): 2.21 ± 0.064 | protein stability index (ubr1∆): 1.74 ± 0.044

MSREGFQIPTNLDAAAA [RPC10]
protein stability index (doa10∆): 1.28 ± 0.1 | protein stability index (pdr5∆): 1.08 ± 0.082 | protein stability index (san1∆): 1.35 ± 0.16 | protein stability index (ubr1∆): 1.16 ± 0.2

QRRVLLSAPLSKELRAQ [RPL26A]
protein stability index (doa10∆): 2.65 ± 0.073 | protein stability index (pdr5∆): 2.43 ± 0.078 | protein stability index (san1∆): 2.62 ± 0.08 | protein stability index (ubr1∆): 2.39 ± 0.063

GSNGELFGGRHYLFNTF [SWP82]
protein stability index (pdr5∆): 2.97 ± 0.29

SLYIYYLIKLLGFEVKD [SIR2]
protein stability index (doa10∆): 2.32 ± 0.12 | protein stability index (pdr5∆): 2.13 ± 0.13 | protein stability index (san1∆): 2.31 ± 0.079 | protein stability index (ubr1∆): 2.27 ± 0.15

TRHQNTIHAKRKIVFRC [RPN4]
protein stability index (doa10∆): 2.75 ± 0.052 | protein stability index (pdr5∆): 2.85 ± 0.059 | protein stability index (san1∆): 2.8 ± 0.07 | protein stability index (ubr1∆): 2.64 ± 0.052

NFGNNGAGGLNPFTSAT [YOR098C/NUP1]
protein stability index (doa10∆): 2.89 ± 0.055 | protein stability index (pdr5∆): 3.21 ± 0.09 | protein stability index (san1∆): 3.15 ± 0.045 | protein stability index (ubr1∆): 3.04 ± 0.052

GVVVLRDREPKEPVALI [RPN2]
protein stability index (doa10∆): 3.5 ± 0.1 | protein stability index (pdr5∆): 3.21 ± 0.11 | protein stability index (san1∆): 3.45 ± 0.076 | protein stability index (ubr1∆): 3.41 ± 0.29

LDAIDDFIQLKQTAAYR [SSN2]
protein stability index (ubr1∆): 3.23 ± 0.22

SQTNNSFLSGVKSLLSE [SIR4]
protein stability index (doa10∆): 2.98 ± 0.069 | protein stability index (pdr5∆): 3.26 ± 0.067 | protein stability index (san1∆): 3.14 ± 0.046 | protein stability index (ubr1∆): 3.1 ± 0.056

NTSAQHVESDKITAKTQ [IRR1]
protein stability index (doa10∆): 2.92 ± 0.05 | protein stability index (pdr5∆): 2.99 ± 0.039 | protein stability index (san1∆): 2.95 ± 0.05 | protein stability index (ubr1∆): 3.08 ± 0.042

LKLNTSLPSKLTKYKEM [SRP68]
protein stability index (doa10∆): 1.77 ± 0.075 | protein stability index (pdr5∆): 1.74 ± 0.065 | protein stability index (san1∆): 1.58 ± 0.1 | protein stability index (ubr1∆): 1.95 ± 0.053

IQLLDENVGTRLLPINV [MED11]
protein stability index (doa10∆): 3.09 ± 0.16 | protein stability index (pdr5∆): 2.86 ± 0.1 | protein stability index (san1∆): 3.14 ± 0.066 | protein stability index (ubr1∆): 3.16 ± 0.063

LGFTPGELRSYLKGATG [FAS1]
protein stability index (doa10∆): 3.26 ± 0.15 | protein stability index (pdr5∆): 3.66 ± 0.28 | protein stability index (san1∆): 3.33 ± 0.17 | protein stability index (ubr1∆): 3.41 ± 0.17

SAYVKAFYQKGNKLVEL [SMC1]
protein stability index (doa10∆): 1.45 ± 0.074 | protein stability index (pdr5∆): 1.99 ± 0.051 | protein stability index (san1∆): 2.12 ± 0.097 | protein stability index (ubr1∆): 1.58 ± 0.052

MSRPQVTVHSLTGEATA [RPL4A]
protein stability index (doa10∆): 1.59 ± 0.09 | protein stability index (pdr5∆): 2.28 ± 0.07 | protein stability index (san1∆): 1.88 ± 0.059 | protein stability index (ubr1∆): 2.07 ± 0.082

LSLHENYPQDEINAVFN [POP1]
protein stability index (doa10∆): 2.97 ± 0.067 | protein stability index (pdr5∆): 3.11 ± 0.056 | protein stability index (san1∆): 3.05 ± 0.04 | protein stability index (ubr1∆): 3 ± 0.059

DKVTSQAVNNLIKTLST [RPP1]
protein stability index (doa10∆): 2.53 ± 0.059 | protein stability index (pdr5∆): 2.89 ± 0.078 | protein stability index (san1∆): 2.47 ± 0.074 | protein stability index (ubr1∆): 2.62 ± 0.048

LLNLPPFQVSSFVKETK [SRB8]
protein stability index (doa10∆): 1.94 ± 0.039 | protein stability index (pdr5∆): 1.88 ± 0.035 | protein stability index (san1∆): 2.04 ± 0.05 | protein stability index (ubr1∆): 2.02 ± 0.04

DVEDDDKETQLKKRAVS [POP7]
protein stability index (doa10∆): 2.85 ± 0.18 | protein stability index (pdr5∆): 2.94 ± 0.096 | protein stability index (san1∆): 2.41 ± 0.16 | protein stability index (ubr1∆): 2.5 ± 0.21

ELISYRNESLKNNSSIR [SRB8]
protein stability index (doa10∆): 3.15 ± 0.068 | protein stability index (pdr5∆): 3.05 ± 0.11 | protein stability index (san1∆): 3.05 ± 0.08 | protein stability index (ubr1∆): 3.05 ± 0.049

DHINGSGKRKPTKAAQR [GAL11]
protein stability index (doa10∆): 2.3 ± 0.14 | protein stability index (pdr5∆): 2.81 ± 0.094 | protein stability index (san1∆): 3.1 ± 0.16 | protein stability index (ubr1∆): 3.17 ± 0.1

ALQILNSGIIPGNRNAD [FAS2]
protein stability index (doa10∆): 2.38 ± 0.075 | protein stability index (pdr5∆): 1.9 ± 0.068 | protein stability index (san1∆): 2.72 ± 0.1 | protein stability index (ubr1∆): 2.8 ± 0.052

MTTSAVSPTVGKLFSDI [YIL149C/MLP2]
protein stability index (doa10∆): 3.1 ± 0.073 | protein stability index (pdr5∆): 3.33 ± 0.064 | protein stability index (san1∆): 3.24 ± 0.044 | protein stability index (ubr1∆): 3.16 ± 0.036

LIESLNTIRQNVTSSGD [YML103C/NUP188]
protein stability index (doa10∆): 1.13 ± 0.064 | protein stability index (pdr5∆): 1.27 ± 0.096 | protein stability index (san1∆): 1.17 ± 0.23 | protein stability index (ubr1∆): 1.21 ± 0.081

GYMQKPVYATIGVETGS [PRP28]
protein stability index (doa10∆): 1.47 ± 0.25 | protein stability index (pdr5∆): 2.23 ± 0.21 | protein stability index (san1∆): 1.68 ± 0.19 | protein stability index (ubr1∆): 1.77 ± 0.19

FVDDMLRDYRFEDATRE [SNF5]
protein stability index (doa10∆): 2.92 ± 0.096 | protein stability index (pdr5∆): 3 ± 0.095 | protein stability index (san1∆): 3.19 ± 0.082 | protein stability index (ubr1∆): 3.35 ± 0.046

LERYVKRCMDDLNPLKT [RPO31]
protein stability index (doa10∆): 3.08 ± 0.078 | protein stability index (pdr5∆): 3.15 ± 0.058 | protein stability index (san1∆): 3.27 ± 0.043 | protein stability index (ubr1∆): 3.16 ± 0.041

KNRSTIFWGIRLAKSTE [BRR2]
protein stability index (doa10∆): 3.04 ± 0.29 | protein stability index (pdr5∆): 2.97 ± 0.16 | protein stability index (ubr1∆): 2.95 ± 0.17
